Data set [1] deals with T1, EfCodY (Enterococcus faecalis) (UniProt Q834K5).
T1 sequence: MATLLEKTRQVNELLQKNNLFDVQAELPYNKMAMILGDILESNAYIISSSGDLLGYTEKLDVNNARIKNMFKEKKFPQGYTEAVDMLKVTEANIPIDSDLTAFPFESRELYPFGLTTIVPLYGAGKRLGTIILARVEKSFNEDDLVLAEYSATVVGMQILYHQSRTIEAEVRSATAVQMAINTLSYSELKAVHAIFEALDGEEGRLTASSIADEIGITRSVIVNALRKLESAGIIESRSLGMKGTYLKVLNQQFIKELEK
The data set is described as follows: BLI. As to conditions: BLI: 20 mM Tris-HCl pH 8, 150 mM NaCl, 2 mM MgCl2, 0.1% NP-40, 25 C, 2 mM GTP and/or 10 mM Ile/Leu/Val as stated.

For data set [2], the target named is Staphylococcus aureus CodY (SaCodY), full length (Staphylococcus aureus) (UniProt Q2FHI3). The data set is described as follows: SEC-MALS; Superdex 75 10/300, 0.4 ml/min; 200 ul of 35 uM CodY, ligand-free, 20 mM Tris-HCl pH 8, 200 mM NaCl. For orientation: In gel filtration, larger molecules generally elute earlier.

For three substances, Kd and stoichiometry N results are on record in publication PMC10415144, “Structural insights into CodY activation and DNA recognition” (Nucleic Acids Research, 2023).

Take 26-nt overlapping sites: the Kd in data set [1] is 710 nM. In data set [2], “Staphylococcus aureus CodY (SaCodY), full length (from UniProt Q2FHI3 1-257) (natural protein)” had a stoichiometry N of 2.

In data set [1] (10 mM Leu (implied), values printed as pair, assigned by order), single 15-nt consensus site came in with a Kd of 706 nM.

As usually defined, the Kd is the constant that tells how readily two partners part at equilibrium. A higher Kd goes with lower affinity. What is called stoichiometry N is a count of units in the complex or per binding partner.
